Ki and Kd data for 2 molecules are collected here from paper PMC4970318.

The target of one assay is RD3. In words: competition.
The next assay has as its target RD1. In words: competition.
The target of assay [1] is LPA2 6-mer (Homo sapiens). Kind of assay: competition.
In a further assay the target is FD1. Kind of assay: competition.
The target of the next assay is RD2. Kind of assay: competition.
A further assay concerns the target FD2. Kind of assay: competition.
In the next assay the target is FD3. Kind of assay: competition.
For assay [2], the target named is Claudin23 10-mer (Homo sapiens).
The target of the next assay is CAT. In words: competition.
Another assay has as its target CST. Kind of assay: competition.
The target of assay [3] is LPA2 10-mer (Homo sapiens).

B1: MAGI-3 PDZ6 (M3P6) PDZ6, Q5TCQ9 (protein)
chain: GCYPVELERGPRGFGFSLRGGKEYNMGLFILRLAEDGPAIKDGRIHVGDQIVEINGEPTQGITHTRAIELIQAGGNKVLLLLRPGTGLI
On to B1, for which the Ki is 6.8 µM with RD3; 1.8 µM with RD1; 47.4 µM in assay [1]; 600 µM with FD1; 2.7 µM with RD2; more than 1000 µM in the assay with FD2. The molecule further gave a Ki in the assay with FD3 of more than 1000 µM. In addition, the Kd in assay [2] turned out to be 3.6 µM.

B2: NHERF-2 PDZ2 (N2P2) PDZ2, Q15599 (protein)
chain: LRPRLCHLRKGPQGYGFNLHSDKSRPGQYIRSVDPGSPAARSGLRAQDRLIEVNGQNVEGLRHAEVVASIKAREDEARLLVVDPETD
With B2, the Ki was 254 µM in the assay with CAT; 4.6 µM in the assay with RD3; 5.4 µM in the assay with RD1; 28.4 µM in assay [1]; 54.8 µM in the assay with CST; 14.2 µM with FD1. In addition, the Ki came out at 12.5 µM with RD2, 6.8 µM with FD2 and 9.1 µM in the assay with FD3. Besides, the Kd in assay [3] is 11.5 µM; with FD2 8-mer, 3.6 µM.

In general, Ki refers to a dissociation constant, usually derived from enzyme kinetics or from competition with a known ligand. Low readings indicate higher affinity, high ones lower affinity. In general, Kd refers to the concentration at which binding is half-saturated. Read a high Kd as a looser complex.
